A word on the stoichiometry N: it is a count of units in the complex or per binding partner.

The source of these data is PMC6442593.

In the assay the target is uPAR-tagged soluble human GPIHBP1-S107C (human) (UniProt Q8IV16). Put plainly: density gradient ultracentrifugation.

Where “and” joins values, the source holds several entries; their conditions need not be identical. Equal values may be shown once.

In the case of “uPAR-tagged soluble human GPIHBP1-S107C (from UniProt Q8IV16 21-151) (domain or fragment)”, the stoichiometry N is 2 and 3.
